Experiment [1] concerns the target T1, MAGE-A3 peptide on HLA-A*02:01 (human).
T1 peptide: FLWGPRALV
As to the kind of experiment: NFAT-luciferase Jurkat cells, CT139 alone; T2 cells with titrated MAGE-A3 peptide and 50 uM NY-ESO-1 peptide; full-length, on cells.

Experiment [2] addresses T1, MAGE-A3 peptide on HLA-A*02:01. The experiment is described as above, co-transfected with inhibitor construct C2106, 5 uM NY-ESO-1 peptide; full-length, on cells.
The target is the same in experiment [3]. The experiment is described as above, co-transfected with inhibitor construct C2107, 5 uM NY-ESO-1 peptide; full-length, on cells.
Experiment [4] has the same target. The description is as above, co-transfected with the inhibitory CAR C1761 (NY-ESO-1 scFv, LILRB1), 50 uM NY-ESO-1 peptide; reduced against CT139 alone; full-length, on cells.

B1: CT139, MAGE-A3 pep1 TCR (both alpha and beta chains) (TCR, V domains shown)
Valpha: AQSVDQPDAHVTLSEGASLELRCSYSYSAAPYLFWYVQYPGQSLQFLLKYITGDTVVKGTKGFEAEFRKSNSSFNLKKSPAHWSDSAKYFCALEGPDTGNYKYVFGAGTRLKVIA
Vbeta: DAGVTQTPRHEVAEKGQTIILKCEPVSGHNDLFWYRQTKIQGLELLSYFRSKSLMEDGGAFKDRFKAEMLNSSFSTLKIQPTEPRDSAVYLCASSFGTASAETLYFGSGTRLTVL
For B1, the EC50 of peptide was 20 nM in experiment [1], 40 nM in experiment [2], 100 nM in experiment [3] and greater than 1000 nM in experiment [4].
